Square brackets hold non-standard residues; d marks the D form. Ends that are not written are not given here. NMeF = CN[C@@H](Cc1ccccc1)C(=O)O; Cha = N[C@@H](CC1CCCCC1)C(=O)O; dCha = N[C@H](CC1CCCCC1)C(=O)O
Biological target: T1, C5a receptor (Homo sapiens, UniProt P21730)
T1 construct: expressed in transfected cells; host or cells: Saccharomyces cerevisiae strain CY10103 (sibling strains CY13970/13971 and CY13974/13975), carrying gpa1(41)-Gαi2, with a FUS1p-lacZ reporter plasmid
T1 sequence (P21730 1-350): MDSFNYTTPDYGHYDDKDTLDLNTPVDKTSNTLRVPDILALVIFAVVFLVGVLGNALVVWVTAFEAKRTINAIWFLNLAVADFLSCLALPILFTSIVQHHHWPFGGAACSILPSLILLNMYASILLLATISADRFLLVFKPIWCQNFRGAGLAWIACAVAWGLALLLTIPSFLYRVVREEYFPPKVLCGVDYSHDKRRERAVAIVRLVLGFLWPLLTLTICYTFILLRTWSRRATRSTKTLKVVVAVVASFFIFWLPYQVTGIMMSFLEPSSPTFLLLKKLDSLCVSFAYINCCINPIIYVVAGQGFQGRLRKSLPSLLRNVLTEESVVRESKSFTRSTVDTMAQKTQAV
Assay: FUS1p-lacZ β-galactosidase reporter assay in yeast expressing a heterologous C5a receptor
Format: cell-based
Details: yeast strains carrying C5a receptor plasmid and FUS1p-lacZ reporter; 4 hours incubation with varying concentrations of ChaCha
Description: Yeast strains expressing heterologous GPCRs can be constructed as previously described (see e.g. WO 94/23025). In this example, to create a yeast strain expressing a heterologous GPCR and a Ste5 expression plasmid, yeast strain CY10103 (genotype MATa ste18 g6-3841 far1D1442 cyh2 tbt1-1 FUS1p-HIS3 can1 ste14::trp1::LYS2 ste3D1156 gpa1(41)-Gαi2 lys2 ura3 leu2 trp1 his3 ade2D3447 ade8D3457) was transformed by electroporation with a C5a receptor-bearing plasmid (Cp1303; genotype LEU2 PGKp-C5aR 2m-ori REP3 bla), a reporter plasmid (Cp1584; genotype bla TRP1 2m-ori FUS1p-lacZ), and plasmids that express either wild-type STE5p (Cp5373; genotype URA3 CEN6 ARSH4 bla FUS1p-STE5), a hyperactive STE5p mutant (Cp5643; genotype URA3 CEN6 ARSH4 bla FUS1p-STE5(S18R,T52M)), or no STE5p (Cp1015; genotype URA3 CEN6 ARSH4 bla). Triple transformants were selected on SC plates lacking uracil, tryptophan, and leucine. […]

For “N-methyl-Phe-Lys-Pro-dCha-Cha-dArg ([NMeF]KP[dCha][Cha][dR]) [ChaCha, C5a receptor ligand; Cha is cyclohexylalanine]”, which “responsiveness to ligand, monitored as β-galactosidase activity (agonist activity at the C5a receptor)” value is on record?
The value was “potent agonist”.

— patent publication US7273747B2, “Cell having amplified signal transduction pathway responses and uses therefor” (Cadus Technologies, Inc., priority 1998, dated 2007)
